This test addresses NHERF4_2, Q86UT5. The experiment in a line: holdup assay. Further details: key: below the threshold = too weak to quantify, mostly under pKd 3.1 to 4.
The mark [1] stands for this setting: plain residues with an end cap or a label only (N-terminal biotin on a linker: ado-ado).
Where [2] appears, read: plain residues with an end cap or a label only (N-terminal biotin on a linker: ahx).

NHERF4_2, Q86UT5, sequence (Q86UT5 220-308): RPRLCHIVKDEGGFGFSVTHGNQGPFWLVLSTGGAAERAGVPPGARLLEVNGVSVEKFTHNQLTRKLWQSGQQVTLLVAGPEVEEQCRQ

The term pKd denotes the negative decadic logarithm of the Kd, by convention in mol/L. Regarding AEASVACSLC [PTGIR, P43119], the pKd entry under setting [1] was “below the threshold”.

For the molecule SPDRDRESIV [SCN5A, Q14524], the pKd result under setting [1] was “below the threshold”.

In the case of PSHPRLQTHV [KIRREL2, Q6UWL6], the pKd entry under setting [1] is “below the threshold”.

With TQKFRASTAL [FRMPD1, Q5SYB0], the pKd entry under setting [2] is recorded as “below the threshold”.

As for QDEKVKESYV [ABCA1, O95477], the pKd entry under setting [2] is on record as “below the threshold”.

Regarding IDESKKEWLI [CNTNAP2, Q9UHC6], under setting [1], the pKd entry is listed as “below the threshold”.

As for DRIQSCLSDA [SBF1, O95248], under setting [1], the pKd result is “below the threshold”.

ELSATVTTDC [TRIP6, Q15654]: the negative-log Kd (pKd) entry under setting [1] is on record as “below the threshold”.

GIKKITSTAL [RPS6KA3, P51812] displayed a pKd under setting [1] of 3.55.

For QRPYRRGSEI [KCNJ18, B7U540], the pKd entry under setting [1] is reported as “below the threshold”.

For the molecule SRSVVESDEL [MYPN, Q86TC9], the pKd entry under setting [1] is given as “below the threshold”.

Consider DDASLPVSDV [PLEKHA1, Q9HB21], for which, under setting [1], the pKd entry is on record as “below the threshold”.

Regarding RFQQRMQTHV [KIRREL1, Q96J84], the pKd entry under setting [1] was “below the threshold”.

Turning to EIPAQSPTCV [FZD10, Q9ULW2], the pKd result under setting [1] is “below the threshold”.

Take PYSESDDDWC [CACNA1A, O00555]: the negative logarithm of the Kd (pKd) result under setting [1] is “below the threshold”.

NIAESLESLV [PTPRZ1, P23471]: under setting [1], the pKd result is listed as “below the threshold”.

For the molecule NNNVVKVDSV [MTNR1A, P48039], under setting [1], the pKd result is “below the threshold”.

With LESTTVGTSV [KARS1, Q15046], the pKd result under setting [1] is given as “below the threshold”.

QNTDDVQTSF [ACE2, Q9BYF1]: under setting [2], the pKd entry is listed as “below the threshold”.

For the molecule QPRTWLQSPV [RTKN, Q9BST9], the pKd entry under setting [2] is “below the threshold”.

Take LKDDELKTKL [SLCO1A2, P46721]: the pKd result under setting [1] is “below the threshold”.

As to PSVGSKKTVL [REELD1, A0A1B0GV85], the pKd result under setting [1] was “below the threshold”.

Turning to VLYPREGTEV [FOXI1, Q12951], under setting [1], the pKd entry was “below the threshold”.

Consider APIAGFSSFV [SDK2, Q58EX2], for which, under setting [1], the negative logarithm of the Kd (pKd) result is listed as “below the threshold”.

Regarding SVTSERETNI [SLC16A7, O60669], the pKd entry under setting [1] is “below the threshold”.

Consider NVYGIESVKI [GRIA2, P42262], for which the pKd result under setting [1] was “below the threshold”.

For LPAVCYDIDI [PTTG2, Q9NZH5], the pKd entry under setting [1] is recorded as “below the threshold”.

For MQHQRTHTRV [ZSCAN30, Q86W11], the pKd result under setting [1] is “below the threshold”.

As for AQRARSPSDV [GPR12, P47775], the pKd result under setting [1] is “below the threshold”.

In the case of RSSGGDDFWF [KCNV1, Q6PIU1], the pKd entry under setting [1] is “below the threshold”.

For MHIQEKGFHV [EPHA6, Q9UF33], the pKd entry under setting [1] is on record as “below the threshold”.

DTKNYKQTSV [CRIPT, Q9P021]: the pKd result under setting [1] is reported as “below the threshold”.

As to TNSRHGETTV [FZD2, Q14332], the pKd entry under setting [1] was “below the threshold”.

Regarding APSRKLNTEI [TIAM1, Q13009], under setting [2], the pKd result is listed as “below the threshold”.

In the case of PTPDLPQTRV [KLHDC7A, Q5VTJ3], the pKd result under setting [1] is “below the threshold”.

Take EPQYQPGENL [SRC, P12931]: under setting [1], the pKd entry is “below the threshold”.

For REEPDHSTEV [CCRL2, O00421], the pKd result under setting [1] was “below the threshold”.

Take PPGKHLVTEV [KCNA7, Q96RP8]: the pKd entry under setting [1] is given as “below the threshold”.

With RDPPAEWTRV [PTPN18, Q99952], under setting [1], the pKd result is recorded as “below the threshold”.

As for KKMLQRRTLL [OR8G1, Q15617], the pKd result under setting [1] is “below the threshold”.

KRPEMTSSSV [MUC3A, MUC3B, Q02505;Q9H195]: the pKd result under setting [1] is given as “below the threshold”.

With EDPRVEVTQF [SLC22A9, Q8IVM8], under setting [1], the pKd result is reported as “below the threshold”.

As for STKRKLASAV [NCF1, P14598], the pKd entry under setting [1] is “below the threshold”.

For the molecule GTGYDRKDYV [CLDN3, O15551], under setting [1], the pKd entry is given as “below the threshold”.

For the molecule DFLSTFHIRI [CIB2, O75838], the pKd entry under setting [1] was “below the threshold”.

Under setting [1], QSYPSKHDYV [CLDN18, P56856] came in with a pKd of 3.59.

With ARSAAASNYV [CLDN4, O14493], under setting [1], the pKd entry was “below the threshold”.

Turning to TESNLQTSSC [CGN, Q9P2M7], the negative-log Kd (pKd) entry under setting [2] was “below the threshold”.

In the case of LAHVKHKEQI [AQP3, Q92482], the negative logarithm of the Kd (pKd) entry under setting [1] is reported as “below the threshold”.

Regarding NISYRRESAI [KCNJ4, P48050], the pKd entry under setting [1] is given as “below the threshold”.

Turning to GEDRSPPTAL [MKNK1, Q9BUB5], the negative-log Kd (pKd) entry under setting [1] is reported as “below the threshold”.

For the molecule VKRNSKETVV [MARCHF3, Q86UD3], the pKd result under setting [1] is given as “below the threshold”.

For the molecule RQKEVRESKC [SCN8A, Q9UQD0], the pKd entry under setting [1] is “below the threshold”.

In the case of QSGLYESEEL [MYOT, Q9UBF9], the pKd result under setting [1] was “below the threshold”.

Turning to EDGESWEYQI [TRPV6, Q9H1D0], the pKd entry under setting [1] was “below the threshold”.

On to NTANRRTTPV [CACNG2, Q9Y698], for which the pKd result under setting [1] was “below the threshold”.

As to DPAESMESLV [PTPRG, P23470], under setting [1], the pKd entry is recorded as “below the threshold”.

For the molecule SFISKKEWYV [NECTIN1, Q15223], the pKd entry under setting [1] is “below the threshold”.

Turning to TISFTQTSQF [SLC1A1, P43005], under setting [1], the pKd result is recorded as “below the threshold”.

With ILRKSTTTTV [PRR16, Q569H4], the pKd result under setting [1] was “below the threshold”.

Consider DGVNEKVSCV [HTR2A, P28223], for which the pKd result under setting [1] is on record as “below the threshold”.

As for NTLNRKTTPV [CACNG8, Q8WXS5], the pKd under setting [1] amounted to 3.53.

ARGPPRESEV [FAM110D, Q8TAY7]: under setting [1], the pKd entry is reported as “below the threshold”.

With ARESQKVSHV [FAM110B, Q8TC76], under setting [1], the pKd entry is “below the threshold”.

Source of the values: PMC9482650, “Quantitative fragmentomics allow affinity mapping of interactomes” (Nature Communications, 2022).
